Reference: IntAct's records for PubMed 20562859

Experiments:
[1] = target: T1, tbd2b_human TBC1D2B (UniProt Q9UPU7)
T1 sequence: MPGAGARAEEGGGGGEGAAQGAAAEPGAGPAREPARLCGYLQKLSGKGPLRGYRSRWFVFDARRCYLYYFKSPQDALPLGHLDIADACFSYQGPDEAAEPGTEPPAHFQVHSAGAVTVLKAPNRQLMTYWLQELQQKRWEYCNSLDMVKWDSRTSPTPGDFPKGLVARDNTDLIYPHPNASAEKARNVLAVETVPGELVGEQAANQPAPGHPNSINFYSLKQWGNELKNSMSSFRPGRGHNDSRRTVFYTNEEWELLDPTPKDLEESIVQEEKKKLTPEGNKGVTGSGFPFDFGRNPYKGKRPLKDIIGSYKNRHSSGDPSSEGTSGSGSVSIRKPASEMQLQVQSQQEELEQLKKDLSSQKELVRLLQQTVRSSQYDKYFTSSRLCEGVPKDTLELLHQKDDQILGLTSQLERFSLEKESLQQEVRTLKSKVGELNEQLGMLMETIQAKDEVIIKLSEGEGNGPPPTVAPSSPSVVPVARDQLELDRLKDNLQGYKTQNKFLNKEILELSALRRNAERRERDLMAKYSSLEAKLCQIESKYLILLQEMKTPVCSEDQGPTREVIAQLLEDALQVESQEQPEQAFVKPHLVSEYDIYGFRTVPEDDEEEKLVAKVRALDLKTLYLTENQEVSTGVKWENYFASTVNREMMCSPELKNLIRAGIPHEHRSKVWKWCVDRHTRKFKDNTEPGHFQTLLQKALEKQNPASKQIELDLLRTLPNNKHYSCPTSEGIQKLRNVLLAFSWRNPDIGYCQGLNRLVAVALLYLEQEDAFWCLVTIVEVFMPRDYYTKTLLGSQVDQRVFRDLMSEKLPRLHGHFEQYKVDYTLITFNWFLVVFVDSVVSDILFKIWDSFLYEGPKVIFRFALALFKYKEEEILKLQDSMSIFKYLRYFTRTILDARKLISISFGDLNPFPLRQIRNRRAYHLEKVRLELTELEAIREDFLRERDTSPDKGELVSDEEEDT

[2] = target: T2, fnip1_human FNIP1 (UniProt Q8TF40)
T2 sequence: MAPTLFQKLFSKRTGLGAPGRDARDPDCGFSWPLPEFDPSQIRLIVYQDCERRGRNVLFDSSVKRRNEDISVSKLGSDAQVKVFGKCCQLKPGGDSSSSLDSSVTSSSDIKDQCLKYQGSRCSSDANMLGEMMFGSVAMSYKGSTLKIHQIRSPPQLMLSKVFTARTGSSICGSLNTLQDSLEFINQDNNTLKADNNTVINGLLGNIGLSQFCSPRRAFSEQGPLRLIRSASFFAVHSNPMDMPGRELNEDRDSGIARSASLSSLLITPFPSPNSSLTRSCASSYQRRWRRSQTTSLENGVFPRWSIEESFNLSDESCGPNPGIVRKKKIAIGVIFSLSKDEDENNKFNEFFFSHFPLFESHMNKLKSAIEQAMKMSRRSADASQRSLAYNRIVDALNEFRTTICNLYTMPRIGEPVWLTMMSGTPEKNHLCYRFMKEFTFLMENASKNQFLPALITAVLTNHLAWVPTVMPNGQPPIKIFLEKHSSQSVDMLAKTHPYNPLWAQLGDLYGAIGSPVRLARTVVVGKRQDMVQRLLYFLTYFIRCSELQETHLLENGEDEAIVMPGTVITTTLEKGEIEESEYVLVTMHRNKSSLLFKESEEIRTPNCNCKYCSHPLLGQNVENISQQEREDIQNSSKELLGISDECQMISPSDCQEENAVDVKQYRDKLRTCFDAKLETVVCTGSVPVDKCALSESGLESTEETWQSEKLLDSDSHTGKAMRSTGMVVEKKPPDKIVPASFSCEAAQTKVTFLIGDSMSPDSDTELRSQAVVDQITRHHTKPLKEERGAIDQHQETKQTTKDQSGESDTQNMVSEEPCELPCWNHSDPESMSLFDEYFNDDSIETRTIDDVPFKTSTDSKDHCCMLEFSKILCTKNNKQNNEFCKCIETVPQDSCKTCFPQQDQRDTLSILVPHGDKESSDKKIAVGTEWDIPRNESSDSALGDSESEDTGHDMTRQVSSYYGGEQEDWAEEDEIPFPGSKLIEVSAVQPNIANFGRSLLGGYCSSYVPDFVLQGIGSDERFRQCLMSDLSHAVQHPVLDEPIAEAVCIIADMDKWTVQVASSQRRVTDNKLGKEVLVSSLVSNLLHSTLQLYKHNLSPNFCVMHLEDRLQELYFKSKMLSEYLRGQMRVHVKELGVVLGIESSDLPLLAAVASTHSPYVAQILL

[3] = target: T3, rasf5_human RASSF5 (UniProt Q8WWW0)
T3 sequence: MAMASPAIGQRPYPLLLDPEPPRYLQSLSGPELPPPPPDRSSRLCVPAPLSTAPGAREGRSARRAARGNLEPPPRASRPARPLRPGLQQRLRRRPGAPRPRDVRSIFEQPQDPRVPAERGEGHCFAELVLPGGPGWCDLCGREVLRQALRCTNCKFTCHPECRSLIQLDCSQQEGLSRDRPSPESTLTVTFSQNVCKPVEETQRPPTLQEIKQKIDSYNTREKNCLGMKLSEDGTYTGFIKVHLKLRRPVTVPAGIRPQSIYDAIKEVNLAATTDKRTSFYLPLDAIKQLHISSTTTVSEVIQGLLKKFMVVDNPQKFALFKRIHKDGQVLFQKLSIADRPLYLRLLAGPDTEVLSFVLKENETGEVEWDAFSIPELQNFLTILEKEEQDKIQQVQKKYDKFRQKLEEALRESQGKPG

Row | Substance | effect of a mutation on the interaction [1] | effect of a mutation on the interaction [2] | effect of a mutation on the interaction [3]
1 | Microtubule-associated protein 1 light chain 3 beta (Homo sapiens) (from UniProt Q9GZQ8) R69A | disrupting interaction | – | –
2 | Microtubule-associated protein 1 light chain 3 beta (Homo sapiens) (from UniProt Q9GZQ8) F52A;L53A | – | increasing interaction | increasing interaction
